Experimental data published in the supplement of paper PMC10126150.
± gives the standard deviation of the averaged measurements.

tested on: ATP; assay: switch fluorescence ratio, 500 uM ATP over buffer (Cy3 cluster intensity, sum of 5 cycles each) (fold (ratio)); higher = stronger signal-on switching upon ATP binding; sequences stand for … in TCGTCGGCAGCGTCAGATGTGTATAAGAGACAGTTTTTTTTTTTTTTTTTTTTTTTTT…TC; conditions: aptamer strand: ATP DNA aptamer (quencher-CACCTGGGGGAGTATTGCGGAGGAAGG + anchor), 100 nM annealed; ATP concentration: 500 uM
Procedure, shortened: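 For every switch-domain sequence, the fluorescence ratio is the mean of per-cluster values, each being summed target-cycle Cy3 intensity over summed buffer-cycle Cy3 intensity. Clusters outside 100-1000 RFU were excluded. On a modified Illumina MiSeq flow-cell, the Cy3-labelled switching-strand clusters were annealed to 100 nM quencher-labelled ATP aptamer, imaged in selection buffer and then after 15 min with 500 uM ATP at 22 °C. Five such cycles were run, with NaOH stripping and re-annealing between them.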
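Also: ATP exposure 15 min at 22 °C before imaging.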

Going from CTGGTCCGGA to CTGGTCGCGT, the switch fluorescence ratio rises from 0.948 ± 0.0035 to 0.9873 ± 0.0081.

Compared with CTGGTGAGGG, CTGGTGGTTT is higher in switch fluorescence ratio: 0.9931 ± 0.0091 for the first, 1.01 ± 0.0047 for the second.

CTGGTGTCAC and CTGGTGTTCT are the same in switch fluorescence ratio: 1.01 ± 0.029 for the first, 1.01 ± 0.017 for the second.

Going from CTGGTTCAGG to CTGGTTCGTC, the switch fluorescence ratio falls from 1.026 ± 0.0082 to 1.005 ± 0.0071.

CTGGTTGGGG and CTGGTTTTAT are within error of each other in switch fluorescence ratio: 1 ± 0.017 for the first, 0.9823 ± 0.009 for the second.

CTGGTTTTCG and CTGGTTTTTT are within error of each other in switch fluorescence ratio: 1 ± 0.021 for the first, 0.99 ± 0.01 for the second.

CTGTAATGGT and CTGTAGATTG are within error of each other in switch fluorescence ratio: 1.04 ± 0.061 for the first, 0.983 ± 0.019 for the second.

First: CTGTATAAGT
Second: CTGTCCATCC
The switch fluorescence ratio of the first is lower: 0.985 ± 0.015 for the first, 1.11 ± 0.035 for the second.

First: CTGTGATGG
Second: CTGTGCGCCA
The switch fluorescence ratio of the first is lower: 1.0776 ± 0.00079 for the first, 1.122 ± 0.0038 for the second.

CTGTGGCCGG and CTGTGGGCTG are within error of each other in switch fluorescence ratio: 0.967 ± 0.017 for the first, 0.989 ± 0.04 for the second.

Going from CTGTGGGGGG to CTGTGGGTAG, the switch fluorescence ratio rises from 0.9869 ± 0.0097 to 1.03 ± 0.021.

CTGTGGGTTT and CTGTGTGCAC are within error of each other in switch fluorescence ratio: 1.01 ± 0.026 for the first, 1 ± 0.066 for the second.

CTGTTCTGTG and CTGTTGGAAG are within error of each other in switch fluorescence ratio: 0.951 ± 0.033 for the first, 0.969 ± 0.012 for the second.

CTGTTGTTG and CTGTTTACTG are within error of each other in switch fluorescence ratio: 1 ± 0.01 for the first, 0.987 ± 0.014 for the second.

CTTAAATGTA and CTTAATCACT are within error of each other in switch fluorescence ratio: 0.982 ± 0.021 for the first, 1.03 ± 0.083 for the second.

CTTAATTTTT and CTTACGTGTG are within error of each other in switch fluorescence ratio: 0.98 ± 0.032 for the first, 1.03 ± 0.034 for the second.

Going from CTTACGTTAT to CTTACTCTTT, the switch fluorescence ratio falls from 1.13 ± 0.036 to 1.0258 ± 0.00043.

CTTAGAAGCA and CTTAGAAGTT are within error of each other in switch fluorescence ratio: 0.9943 ± 0.0017 for the first, 1.01 ± 0.027 for the second.

CTTAGATAGT and CTTAGATATT are the same in switch fluorescence ratio: 1.01 ± 0.0098 for the first, 1.01 ± 0.045 for the second.

First: CTTAGATGGG
Second: CTTAGGACAG
The switch fluorescence ratio of the first is lower: 0.9579 ± 0.0064 for the first, 1.01 ± 0.035 for the second.

CTTAGGGCGA and CTTAGGGGTC are within error of each other in switch fluorescence ratio: 0.9728 ± 0.001 for the first, 0.997 ± 0.026 for the second.

CTTAGGGTGT and CTTAGTCGGC are within error of each other in switch fluorescence ratio: 0.964 ± 0.04 for the first, 0.967 ± 0.015 for the second.

Compared with CTTATAATTT, CTTATAGCAT is higher in switch fluorescence ratio: 0.9947 ± 0.0082 for the first, 1.096 ± 0.0085 for the second.

First: CTTATAGTAG
Second: CTTATATGAG
The switch fluorescence ratio of the first is lower: 0.9847 ± 0.0066 for the first, 1.001 ± 0.0025 for the second.

Compared with CTTATGAAGG, CTTATGAGCA is higher in switch fluorescence ratio: 0.989 ± 0.024 for the first, 1.038 ± 0.0023 for the second.

CTTATTGGGT and CTTCAATTAT are within error of each other in switch fluorescence ratio: 0.993 ± 0.011 for the first, 1.01 ± 0.029 for the second.

CTTCAGGGGA and CTTCATAGAT are within error of each other in switch fluorescence ratio: 1.01 ± 0.061 for the first, 1.02 ± 0.016 for the second.

First: CTTCGCCTTT
Second: CTTCGGAGTG
The switch fluorescence ratio of the first is higher: 1.06 ± 0.016 for the first, 1.02 ± 0.023 for the second.

CTTCGGTGTG and CTTCGTATGG are within error of each other in switch fluorescence ratio: 1.04 ± 0.13 for the first, 1 ± 0.029 for the second.

Going from CTTCTAGGGG to CTTCTATGTT, the switch fluorescence ratio falls from 1.05 ± 0.011 to 0.984 ± 0.002.

CTTCTGTGGG and CTTCTTAAGA are within error of each other in switch fluorescence ratio: 1.027 ± 0.0036 for the first, 0.984 ± 0.046 for the second.

CTTCTTGCTG and CTTGAAAGGG are within error of each other in switch fluorescence ratio: 0.972 ± 0.011 for the first, 0.997 ± 0.02 for the second.

Compared with CTTGAATACT, CTTGACAAGG is lower in switch fluorescence ratio: 1.05 ± 0.03 for the first, 0.982 ± 0.014 for the second.

CTTGACATGT and CTTGAGGGGG are within error of each other in switch fluorescence ratio: 0.976 ± 0.016 for the first, 1.04 ± 0.092 for the second.

CTTGATGCAG and CTTGATTTGA are within error of each other in switch fluorescence ratio: 0.996 ± 0.053 for the first, 1.001 ± 0.0089 for the second.

Compared with CTTGCATTTT, CTTGCCGCGC is higher in switch fluorescence ratio: 1.04 ± 0.031 for the first, 1.13 ± 0.017 for the second.

Going from CTTGCGTCAC to CTTGCTGGTT, the switch fluorescence ratio falls from 1.18 ± 0.044 to 0.999 ± 0.028.

CTTGGAGGGA and CTTGGAGTTT are within error of each other in switch fluorescence ratio: 1.02 ± 0.03 for the first, 1 ± 0.034 for the second.

CTTGGGAATT and CTTGGGAGAA are within error of each other in switch fluorescence ratio: 0.979 ± 0.044 for the first, 0.9961 ± 0.0032 for the second.

CTTGGGCCCT and CTTGGGTTGG are within error of each other in switch fluorescence ratio: 0.979 ± 0.033 for the first, 0.997 ± 0.028 for the second.

CTTGGTCTGA and CTTGGTGGAC are within error of each other in switch fluorescence ratio: 0.994 ± 0.024 for the first, 0.97 ± 0.048 for the second.

CTTGGTTAGT and CTTGTAAAGG are within error of each other in switch fluorescence ratio: 1.03 ± 0.056 for the first, 0.9825 ± 0.00043 for the second.

Going from CTTGTAGGGT to CTTGTATCGT, the switch fluorescence ratio falls from 1.01 ± 0.021 to 0.971 ± 0.015.

CTTGTATTGG and CTTGTCATGA are within error of each other in switch fluorescence ratio: 1.03 ± 0.072 for the first, 1.02 ± 0.017 for the second.

CTTGTTATTG and CTTGTTGATG are within error of each other in switch fluorescence ratio: 0.9602 ± 0.0071 for the first, 1 ± 0.036 for the second.

CTTGTTGTTC and CTTTAATCC are within error of each other in switch fluorescence ratio: 0.9981 ± 0.0063 for the first, 1.27 ± 0.48 for the second.

Going from CTTTCATTTT to CTTTCCGAAG, the switch fluorescence ratio rises from 0.972 ± 0.036 to 2.72 ± 0.03.

CTTTCGTCTG and CTTTCGTGGA are within error of each other in switch fluorescence ratio: 1.01 ± 0.035 for the first, 1 ± 0.022 for the second.

CTTTCTAGCG and CTTTCTATGT are within error of each other in switch fluorescence ratio: 0.995 ± 0.032 for the first, 0.986 ± 0.029 for the second.

CTTTCTTG and CTTTGAATGT are within error of each other in switch fluorescence ratio: 1.01 ± 0.043 for the first, 0.983 ± 0.03 for the second.

CTTTGAGGTG and CTTTGGCAGA are within error of each other in switch fluorescence ratio: 1.04 ± 0.069 for the first, 1.03 ± 0.043 for the second.

Going from CTTTGGCAGC to CTTTGGCCGG, the switch fluorescence ratio falls from 1.06 ± 0.017 to 1.011 ± 0.0087.

CTTTGGCGCC and CTTTGGCTGA are within error of each other in switch fluorescence ratio: 0.986 ± 0.014 for the first, 0.998 ± 0.025 for the second.

Compared with CTTTGGGGTT, CTTTGTTGG is lower in switch fluorescence ratio: 1.01 ± 0.032 for the first, 0.9646 ± 0.0024 for the second.

CTTTTAATTT and CTTTTAGCTG are within error of each other in switch fluorescence ratio: 1.04 ± 0.022 for the first, 1 ± 0.019 for the second.

CTTTTAGGCT and CTTTTAGTTA are within error of each other in switch fluorescence ratio: 1.02 ± 0.092 for the first, 1.01 ± 0.015 for the second.

CTTTTATTTT and CTTTTCATTG are within error of each other in switch fluorescence ratio: 1.03 ± 0.012 for the first, 1.06 ± 0.089 for the second.

Compared with CTTTTCGGCT, CTTTTCGGGT is lower in switch fluorescence ratio: 1.04 ± 0.028 for the first, 0.964 ± 0.033 for the second.

CTTTTCTTGG and CTTTTGACTG are within error of each other in switch fluorescence ratio: 0.991 ± 0.03 for the first, 1.05 ± 0.043 for the second.

CTTTTGGGAC and CTTTTTAATG are within error of each other in switch fluorescence ratio: 0.987 ± 0.025 for the first, 0.98 ± 0.028 for the second.

CTTTTTAGGT and CTTTTTTATT are within error of each other in switch fluorescence ratio: 0.998 ± 0.012 for the first, 1.01 ± 0.0085 for the second.

CTTTTTTGGT and CTTTTTTTAG are within error of each other in switch fluorescence ratio: 1.03 ± 0.015 for the first, 1.0383 ± 0.001 for the second.

CTTTTTTTGT and GAAAAAAGGG are within error of each other in switch fluorescence ratio: 0.995 ± 0.025 for the first, 1.11 ± 0.11 for the second.

GAAAAAATCC and GAAAAAGCCG are within error of each other in switch fluorescence ratio: 1.29 ± 0.34 for the first, 1.014 ± 0.0078 for the second.

GAAAAAGGAA and GAAAAAGGGG are within error of each other in switch fluorescence ratio: 1.024 ± 0.0041 for the first, 1.01 ± 0.019 for the second.

GAAAAATTGG and GAAAACGGGG are within error of each other in switch fluorescence ratio: 1.03 ± 0.03 for the first, 1.01 ± 0.02 for the second.

GAAAAGGTTC and GAAAATGCAT are within error of each other in switch fluorescence ratio: 1.04 ± 0.044 for the first, 0.99 ± 0.013 for the second.

GAAAATGTCG and GAAAATGTTG are within error of each other in switch fluorescence ratio: 0.988 ± 0.07 for the first, 0.991 ± 0.033 for the second.

First: GAAACAATTG
Second: GAAACAGGCA
The switch fluorescence ratio of the first is higher: 0.9897 ± 0.0075 for the first, 0.963 ± 0.017 for the second.

First: GAAACAGGGA
Second: GAAACATACG
The switch fluorescence ratio of the first is lower: 1.06 ± 0.057 for the first, 1.33 ± 0.026 for the second.

GAAAGATAAG and GAAAGCGCGT are within error of each other in switch fluorescence ratio: 0.985 ± 0.014 for the first, 0.965 ± 0.028 for the second.

GAAAGGAGGG and GAAAGGATTA are within error of each other in switch fluorescence ratio: 1.03 ± 0.065 for the first, 0.995 ± 0.063 for the second.

GAAAGGGATT and GAAAGGGGTA are within error of each other in switch fluorescence ratio: 1 ± 0.048 for the first, 1.01 ± 0.046 for the second.

GAAAGGGTTG and GAAAGTGTGG are within error of each other in switch fluorescence ratio: 0.968 ± 0.035 for the first, 0.971 ± 0.03 for the second.

Compared with GAAAGTGTTG, GAAAGTTCGC is higher in switch fluorescence ratio: 0.9722 ± 0.0058 for the first, 1.02 ± 0.038 for the second.

GAAATACAAC and GAAATACGCT are within error of each other in switch fluorescence ratio: 1.04 ± 0.028 for the first, 1.08 ± 0.022 for the second.

For GAAATATCAG, the switch fluorescence ratio was 1.01 ± 0.029.
